Test results published in PMC7566471, “A new perspective on the interaction between the Vg/VGLL1-3 proteins and the TEAD transcription factors” (Scientific Reports, 2020).
Read-outs that look alike come from different tables or passages of the source.

T1: Asp276Ala^Sd (Scalloped 223–440), biotinylated Avi-tagged (Drosophila melanogaster, UniProt P30052 223-440, Asp276Ala, biotin on the Avi-tag; incubated with myristoyl coenzyme A)
T1 construct: Scalloped (Sd), Drosophila melanogaster, UniProt P30052, amino acids 223–440, with Asp276Ala; also called Asp246Ala^Sd (as printed in two sentences); source: E. coli BL21(DE3) with a BirA plasmid, purified (HisTrap, HRV 3C cleavage, Superdex 75); not shown: His6, N-terminal, cleaved; Avi-tag, N-terminal, kept
T1 sequence (looked up): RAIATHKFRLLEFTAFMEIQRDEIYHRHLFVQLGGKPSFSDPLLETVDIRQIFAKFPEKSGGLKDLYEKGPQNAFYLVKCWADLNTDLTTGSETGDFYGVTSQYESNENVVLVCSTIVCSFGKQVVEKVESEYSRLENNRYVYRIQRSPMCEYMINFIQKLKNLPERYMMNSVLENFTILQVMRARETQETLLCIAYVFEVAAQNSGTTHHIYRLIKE

T2: Tyr435His^Sd (Scalloped 223–440), biotinylated Avi-tagged (Drosophila melanogaster, UniProt P30052 223-440, Tyr435His, biotin on the Avi-tag; incubated with myristoyl coenzyme A)
T2 construct: Scalloped (Sd), Drosophila melanogaster, UniProt P30052, amino acids 223–440, with Tyr435His; source: E. coli BL21(DE3) with a BirA plasmid, purified (HisTrap, HRV 3C cleavage, Superdex 75); not shown: His6, N-terminal, cleaved; Avi-tag, N-terminal, kept
T2 sequence (looked up): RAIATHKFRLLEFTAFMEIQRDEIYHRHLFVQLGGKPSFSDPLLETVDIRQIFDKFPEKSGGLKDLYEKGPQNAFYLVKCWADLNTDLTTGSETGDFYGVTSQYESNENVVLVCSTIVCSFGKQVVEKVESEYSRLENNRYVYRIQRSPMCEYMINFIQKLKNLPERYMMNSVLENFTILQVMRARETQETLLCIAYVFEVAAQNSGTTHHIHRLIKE

T3: wt^Sd (Scalloped 223–440), N-biotinylated-Avitagged (Drosophila melanogaster, UniProt P30052 223-440, biotin on the Avi-tag; acylated (incubated with myristoyl coenzyme A; purified as a mixture of acylated and non-acylated proteins))
T3 construct: Immobilised on SPR sensor chips by the biotinylated Avi-tag; also called Sd^223–440; source: E. coli BL21(DE3) with a BirA plasmid, purified (HisTrap, HRV 3C cleavage, Superdex 75); not shown: His6, N-terminal, cleaved; Avi-tag, N-terminal, kept
T3 sequence (looked up): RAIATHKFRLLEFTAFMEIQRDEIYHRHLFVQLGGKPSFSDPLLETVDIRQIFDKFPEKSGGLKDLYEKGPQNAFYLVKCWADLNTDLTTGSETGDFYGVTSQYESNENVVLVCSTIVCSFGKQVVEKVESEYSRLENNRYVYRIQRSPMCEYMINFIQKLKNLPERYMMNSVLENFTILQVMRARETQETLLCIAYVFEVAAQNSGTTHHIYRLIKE


Columns and labels:
[1] = target: wt^Sd (Scalloped 223–440), N-biotinylated-Avitagged (Drosophila melanogaster) (UniProt P30052); test: SPR; N-biotinylated-Avitagged Sd (wild type or mutant) immobilised on sensor chips; Yki or Vg fragment as analyte; Kd at equilibrium by a standard SPR method
[2] = target: N-terminally V5-tagged Asp272Ala^TEAD4 (full length) (human) (UniProt Q15561); test: co-IP; V5-TEAD4 and (FLAG)3-VGLL2 co-transfected into HEK293FT YAP/TAZ double knockout cells; V5 immunoprecipitation, anti-FLAG Western blot; similar results in wild-type HEK293FT cells
[3] = target: TEAD4 (protein of the SPR and TR-FRET assays) (human); test: FRET or BRET; TR-FRET assay with TEAD4; potency (IC50) of peptides; methodology in Fig. S8
[4] = target: TEAD4 (protein of the SPR and TR-FRET assays) (human); test: SPR; peptides against TEAD4; Kd at equilibrium; peptide stocks in DMSO or in acetonitrile:(water + 1 mM TCEP)
[5] = target: TEAD4 (Homo sapiens) (UniProt Q15561); details: cited from earlier work
[6] = target: T1, Asp276Ala^Sd (Scalloped 223–440), …; test: SPR; N-biotinylated-Avitagged Sd (wild type or mutant) immobilised on sensor chips; Yki or Vg fragment as analyte; Kd at equilibrium by a standard SPR method; details: both partners purified
[7] = target: T2, Tyr435His^Sd (Scalloped 223–440), …; test: as above; details: both partners purified
[8] = target: T3, wt^Sd (Scalloped 223–440), …; test: as above; details: both partners purified
[9] = target: T3, wt^Sd (Scalloped 223–440), …; test: SPR; N-biotinylated-Avitagged Sd (wild type or mutant) immobilised on sensor chips; Kd by kinetic titration (Kd^KT); details: both partners purified
[10] = target: T1, Asp276Ala^Sd (Scalloped 223–440), …; test: as above; details: both partners purified
[11] = target: T2, Tyr435His^Sd (Scalloped 223–440), …; test: as above; details: both partners purified
[12] = target: TEAD4 (protein of the SPR and TR-FRET assays) (human); test: SPR; peptides against TEAD4; Kd at equilibrium; peptide stocks in DMSO or in acetonitrile:(water + 1 mM TCEP); remark: listed apart in the source

TEAD4 (Homo sapiens), sequence (Q15561 whole entry, the tested form may be a part): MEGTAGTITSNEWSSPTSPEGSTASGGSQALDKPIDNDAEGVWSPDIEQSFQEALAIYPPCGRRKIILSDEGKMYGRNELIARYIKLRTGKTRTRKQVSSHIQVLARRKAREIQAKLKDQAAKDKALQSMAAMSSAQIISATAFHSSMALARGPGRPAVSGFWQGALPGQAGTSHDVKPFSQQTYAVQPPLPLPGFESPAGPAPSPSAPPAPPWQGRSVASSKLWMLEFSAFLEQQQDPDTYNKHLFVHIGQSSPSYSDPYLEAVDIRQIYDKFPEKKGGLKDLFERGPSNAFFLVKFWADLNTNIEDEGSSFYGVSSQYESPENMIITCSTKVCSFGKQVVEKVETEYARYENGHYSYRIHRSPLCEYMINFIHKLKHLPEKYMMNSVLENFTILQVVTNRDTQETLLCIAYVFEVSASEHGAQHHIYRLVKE
VGLL1 27-51, sequence (Q99990 27-51): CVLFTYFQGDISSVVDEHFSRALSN
N-terminally V5-tagged Asp272Ala^TEAD4 (full length) (human), sequence (Q15561 whole entry D272A): as the sequence (Q15561 whole entry, the tested form may be a part) above, with D272A counted along it

Row | Molecule | IC50 [3] | Kd [4] | Kd [8] | other results
1 | Vg^298–337 (from UniProt Q26366 298-337) (peptide) |  |  |  | Kd [1]: 61 nM
2 | (FLAG)3-delΩ^VGLL2 (full length with the Ω-loop deleted) (from UniProt Q8N8G2-1 1-317) (natural protein) |  |  |  | fold reduction of co-immunoprecipitation against wt^TEAD4 with wt^VGLL2 [2]: 2 fold
3 | YAP^85–99 (from UniProt P46937 85-99) (peptide) | 98000 nM | 58000 nM |  | 
4 | VGLL1 27-51 (from UniProt Q99990) |  |  |  | Kd [5]: 160 nM
5 | Flyman (hybrid peptide: β-strand:α-helix and Ω-loop of VGLL2 connected by the linker from Vg) |  | 4.3 nM |  | 
6 | Yki^30–146 (domain or fragment, Drosophila melanogaster, UniProt Q45VV3 30-146, looked up, Yorkie (Yki), Drosophila melanogaster, UniProt Q45VV3, amino acids 30–146; also called Yorkie 30–146; source: E. coli (BL21(DE3) and NiCo21(DE3) are both named), purified (HisTrap, HRV 3C cleavage, Superdex 75); not shown: His-tag, N-terminal, cleaved; strep-tagII, N-terminal, cleaved; rubredoxin, N-terminal, cleaved) SNNLVVRVNQDTDDNLQALFDSVLNPGDAKRPLQLPLRMRKLPNSFFTPPAPSHSRANSADSTYDAGSQSSINIGNKASIVQQPDGQSPIAAIPQLQIQPSPQHSRLAIHHSRARSS |  |  | 13 nM | Kd [6]: 5000 nM; Kd [7]: 13000 nM; Kd [9]: 13 nM
7 | VGLL2^85–149 (peptide) peptide: Ac-CVLFTYFQGDISSVVDEHFSRALSQPSSYSPSCTSSKAPRSSGPWRDCSFPMSQRSFPASFWNSA-NH2 | 6.3 nM | 34 nM |  | 
8 | Ac-TDDNLQALFDSVLNPGDAKRPLQLPLRMRKLPNSFFTPP-NH2 (peptide, UniProt Q45VV3 41-79, looked up, Yorkie (Yki), Drosophila melanogaster, UniProt Q45VV3, residues 41–79 (lacks the putative β-strand); source: synthetic peptide, bought: Biosynthan) [Yki^41–79] |  |  | 69 nM | 
9 | Ac-CVLFTYFQGDISSVVDEHFSRALS-NH2 [VGLL2^85–108] | 340 nM | 590 nM |  | 
10 | Vg^263–382 (domain or fragment, Drosophila melanogaster, UniProt Q26366 263-382, looked up, Vestigial (Vg), Drosophila melanogaster, UniProt Q26366, amino acids 263–382; also called Vestigial 263–382; source: E. coli (BL21(DE3) and NiCo21(DE3) are both named), purified (HisTrap, HRV 3C cleavage, Superdex 75); not shown: His-tag, N-terminal, cleaved; strep-tagII, N-terminal, cleaved; rubredoxin, N-terminal, cleaved) ETPMGSGGGGLAGSGQGQAQYLSASCVVFTNYSGDTASQVDEHFSRALNYNNKDSKESSSPMSNRNFPPSFWNSNYVHPIPAPTHHQVSDLYGTATDTGYATDPWVPHAAHYGSYAHAAH |  |  | < 2 nM | Kd [10]: 5.5 nM; Kd [11]: 24 nM; Kd [9]: 0.38 nM
11 | Ac-NNLVVRVNQDTDDNLQALFDSVLNPGDAKRPLQLPLRMRKLPNSFFTPP-NH2 (peptide, UniProt Q45VV3 31-79, looked up, Yorkie (Yki), Drosophila melanogaster, UniProt Q45VV3, residues 31–79; only Yki 30–146 and Vg 263–382 are described as recombinant; source: synthetic peptide, bought: Biosynthan) [Yki^31–79] |  |  | 23 nM | 
12 | Ac-PMSNRNFPPSFWNSN-NH2 [Vg^323–337] | 160000 nM |  |  | 
13 | Ac-CVVFTNYSGDTASQVDEHFSRALN-NH2 (peptide, UniProt Q26366 288-311, looked up, Vestigial (Vg), Drosophila melanogaster, UniProt Q26366, residues 288–311 (TONDU domain); also called TONDU domain of Vg; β-strand:α-helix region of Vg; source: synthetic peptide, bought: Biosynthan) [Vg^288–311] |  |  | 291 nM | 
14 | Ac-CVVFTNYSGDTASQVDEHFSRALNYNNKDSKESSSPMSNRNFPPSFWNSN-NH2 (peptide, UniProt Q26366 288-337, looked up, source: synthetic peptide, bought: Biosynthan) [Vg^288–337] |  | 3.1 nM | < 2 nM | Kd [12]: 4.1 nM; Kd [9]: 1.6 nM
15 | Ac-PMSQRSFPASFWNSA-NH2 [VGLL2^135–149] | 133000 nM |  |  | 
